# The supplement of paper PMC9112550, “Optimization of the antimicrobial peptide Bac7 by deep mutational scanning” (BMC Biology, 2022)
# System: Escherichia coli TOP10
# Experiment: shrunken log2 fold change of peptide-encoding DNA abundance (4.5 h post-induction vs induction); higher = less antimicrobial activity (less host growth inhibition)
# Details: time post-induction: 4.5 h; library: site-saturation at positions 5, 18, 19, 20
# 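Note: peptides expressed intracellularly from a pBAD plasmid library in pooled LB shake-flask culture, induced with 0.3% L-arabinose, DNA abundance read by NGS, three biological replicates, DESeq2 with apeglm shrinkage.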
row,Sequence,shrunken log2 fold change
1,RRIRSRPPRLPRPRPRPVIKPRP,-0.476
2,RRIRNRPPRLPRPRPRPYITPRP,-0.292
3,RRIRIRPPRLPRPRPRPFVAPRP,-0.158
4,RRIRERPPRLPRPRPRPFYMPRP,-0.167
5,RRIRFRPPRLPRPRPRPDWEPRP,-0.169
6,RRIRTRPPRLPRPRPRPLGTPRP,-0.145
7,RRIRHRPPRLPRPRPRPHGRPRP,-0.219
8,RRIRLRPPRLPRPRPRPWQAPRP,0.226
9,RRIRRRPPRLPRPRPRPCIIPRP,-0.474
10,RRIRFRPPRLPRPRPRPVPEPRP,0.098
11,RRIRKRPPRLPRPRPRPHAMPRP,-0.0147
12,RRIRMRPPRLPRPRPRPVHQPRP,-0.112
13,RRIRPRPPRLPRPRPRPQMLPRP,0.0602
14,RRIRFRPPRLPRPRPRPGRTPRP,0.301
15,RRIRRRPPRLPRPRPRPHWPPRP,0.312
16,RRIRARPPRLPRPRPRPARHPRP,0.424
17,RRIRERPPRLPRPRPRPPRQPRP,0.26
18,RRIRYRPPRLPRPRPRPVANPRP,-0.0575
19,RRIRERPPRLPRPRPRPGSQPRP,-0.196
20,RRIRFRPPRLPRPRPRPETGPRP,0.0907
21,RRIRYRPPRLPRPRPRPKTMPRP,-0.614
22,RRIRKRPPRLPRPRPRPDNEPRP,0.665
23,RRIRIRPPRLPRPRPRPGACPRP,-0.243
24,RRIRFRPPRLPRPRPRPEKPPRP,-0.0143
25,RRIRIRPPRLPRPRPRPIFYPRP,-0.775

row,Sequence,shrunken log2 fold change
1,RRIRKRPPRLPRPRPRPLEWPRP,-0.0047
2,RRIRNRPPRLPRPRPRPQVPPRP,0.0184
3,RRIRHRPPRLPRPRPRPPYNPRP,-0.642
4,RRIRTRPPRLPRPRPRPRVHPRP,0.0778
5,RRIRKRPPRLPRPRPRPCMFPRP,-0.167
6,RRIRSRPPRLPRPRPRPTCPPRP,0.0454
7,RRIRMRPPRLPRPRPRPPAAPRP,2.78
8,RRIRTRPPRLPRPRPRPSLCPRP,-0.0129
9,RRIRNRPPRLPRPRPRPRTQPRP,0.11
10,RRIRDRPPRLPRPRPRPPGGPRP,1.07
11,RRIRRRPPRLPRPRPRPHWNPRP,-0.159
12,RRIRQRPPRLPRPRPRPSITPRP,-0.731
13,RRIRRRPPRLPRPRPRPLVEPRP,0.116
14,RRIRMRPPRLPRPRPRPFMKPRP,-0.0288
15,RRIRYRPPRLPRPRPRPSSPPRP,-0.631
16,RRIRKRPPRLPRPRPRPPDDPRP,1.99
17,RRIRFRPPRLPRPRPRPTALPRP,0.0145
18,RRIRYRPPRLPRPRPRPDKGPRP,-0.0723
19,RRIRERPPRLPRPRPRPHDCPRP,-0.715
20,RRIRTRPPRLPRPRPRPHMTPRP,-0.265
21,RRIRVRPPRLPRPRPRPAGPPRP,0.264
22,RRIRYRPPRLPRPRPRPQSIPRP,-0.0346
23,RRIRWRPPRLPRPRPRPKAKPRP,0.166
24,RRIRLRPPRLPRPRPRPMRPPRP,1.44
25,RRIRDRPPRLPRPRPRPPTYPRP,-0.383

row,Sequence,shrunken log2 fold change
1,RRIRVRPPRLPRPRPRPPNPPRP,0.379
2,RRIRKRPPRLPRPRPRPCDKPRP,0.000564
3,RRIRFRPPRLPRPRPRPAHHPRP,-0.152
4,RRIRKRPPRLPRPRPRPFCPPRP,0.0562
5,RRIRLRPPRLPRPRPRPDYNPRP,-0.657
6,RRIRWRPPRLPRPRPRPGKIPRP,0.159
7,RRIRCRPPRLPRPRPRPIRMPRP,-0.339
8,RRIRKRPPRLPRPRPRPFAHPRP,-0.00992
9,RRIRCRPPRLPRPRPRPKRTPRP,0.642
10,RRIRARPPRLPRPRPRPLYAPRP,0.0495
11,RRIRGRPPRLPRPRPRPRFNPRP,0.0824
12,RRIRVRPPRLPRPRPRPIFLPRP,-0.157
13,RRIRARPPRLPRPRPRPINMPRP,-0.346
14,RRIRCRPPRLPRPRPRPRHPPRP,0.11
15,RRIRDRPPRLPRPRPRPTSQPRP,0.495
16,RRIRMRPPRLPRPRPRPKCLPRP,0.148
17,RRIRHRPPRLPRPRPRPQNQPRP,-0.563
18,RRIRTRPPRLPRPRPRPTRMPRP,0.196
19,RRIRYRPPRLPRPRPRPCFFPRP,-0.619
20,RRIRRRPPRLPRPRPRPYDCPRP,-0.113
21,RRIRRRPPRLPRPRPRPRPRPRP,0.86
22,RRIRHRPPRLPRPRPRPYVKPRP,-0.509
23,RRIRDRPPRLPRPRPRPWMVPRP,0.333
24,RRIRTRPPRLPRPRPRPRWVPRP,0.216
25,RRIRERPPRLPRPRPRPLIIPRP,-1
